Source: US20080305522A1 (MITSUKAN GROUP, published 2008)
Blank lines part the entries; values can stand above or below the binder they belong to.

How the values were obtained:
[1] = target: T1, recombinant NBS secreted by Aspergillus oryzae NS-NAB2 (three Gly residues before the N terminus) (Curculigo latifolia, UniProt P19667 23-136); experiment: phenyl hydrophobic column fractions, SDS-PAGE under reducing/non-reducing conditions and western blotting
T1 construct: Expressed as an alpha-amylase fusion and cleaved at Lys-Arg by a KEX2-like protease; also called 11 kDa band of recombinant neoculin
T1 sequence: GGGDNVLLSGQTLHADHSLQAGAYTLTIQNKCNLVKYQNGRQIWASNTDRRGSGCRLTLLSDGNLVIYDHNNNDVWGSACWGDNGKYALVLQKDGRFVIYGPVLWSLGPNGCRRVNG

[2] = target: the molecule itself; experiment: as above
[3] = target: T2, polypeptide NBS (neoculin basic subunit), purified from the fruit of Curculigo latifolia (Curculigo latifolia, UniProt P19667 23-136); experiment: SDS-PAGE under reducing and non-reducing conditions, CBB staining, native neoculin
T2 construct: Subunit of native neoculin, without a sugar chain; It has 115 residues: curculin B plus one extra C-terminal Gly; also called 11 kDa subunit
T2 sequence: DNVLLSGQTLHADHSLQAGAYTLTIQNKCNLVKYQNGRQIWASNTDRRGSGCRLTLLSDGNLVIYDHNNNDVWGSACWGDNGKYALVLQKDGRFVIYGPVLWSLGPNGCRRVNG
Protocol: 2.5 μg of the purified neoculin powder obtained above in (1) to (3) was subjected to SDS-PAGE under reducing conditions or non-reducing conditions at a gel concentration of 15% and subsequently to CBB staining. […] Thus, the individual subunits were designated as neoculin acidic subunit (NAS) and neoculin basic subunit (NBS).

- binding result [1]: binds
B1: recombinant NAS secreted by Aspergillus oryzae NS-NAB2 (three Gly residues before the N terminus) (other)
chain: GGGDSVLLSGQTLYAGHSLTSGSYTLTIQNNCNLVKYQHGRQIWASDTDGQGSQCRLTLRSDGNLIIYDDNNMVVWGSDCWGNNGTYALVLQQDGLFVIYGPVLWPLGLNGCRSLN
notes: Expressed as an alpha-amylase fusion and cleaved at Lys-Arg by a KEX2-like protease; Glycosylation in the koji mold is not described; also called 13 kDa band of recombinant neoculin
- binding result [2]: binds

- binding result [3]: binds
B2: polypeptide NAS (neoculin acidic subunit), purified from the fruit of Curculigo latifolia (other)
chain: DSVLLSGQTLYAGHSLTSGSYTLTIQNNCNLVKYQHGRQIWASDTDGQGSQCRLTLRSDGNLIIYDDNNMVVWGSDCWGNNGTYALVLQQDGLFVIYGPVLWPLGLNGCRSLN
modifications: N-linked sugar chain, mannose/N-acetylglucosamine/fucose/xylose at a ratio of about 3/2/1/1; binding site 'may possibly be asparagine-81' of SEQ ID NO.2
notes: Subunit of native neoculin; It separates from NBS only under reducing conditions in SDS-PAGE; also called 13 kDa subunit
